Experimental data reported in the DeepSol protein solubility set.

Experiment: soluble on expression in E. coli; label from the status in PepcDB or PDB records

Sequence	soluble on expression in E. coli
MKRVLIVGATGTIGGVVRQTLLNETDNQLTLFARSANRLKTSERESVIAGDVTKDSDLDKAIAGQDVVFVALSGSLGRFAQKIVAAMDRNKVSRLLFITSMGIYDEIPASVGASGNLSSNPMLRTYREAADVVEASDLNYTLIRPGWFTGGPVDYEITKKGEPFGGHDVSINSIADFVKNAIVDNDYYAHDSVGLNAK	not soluble
MKRYTVKDIEALLPKLGADDPRWEMLRQDERKSVQALLARFERQKARRHAIEQRWEELMRYERELYAAGVRRIAGIDEAGRGPLAGPVVAAAVILPKDAYLPGLDDSKRLTPEKREALFAQIEACAVAIGIGIVSAAEIDERNIYEATRQAMAKAVNALSPPPEHLLVDAMAVPCPLPQQRLIKGDANSASIAAASVIAKVTRDRWMKELDRRYPQYGFARHMGYGTPEHFEAIRRYGVTPEHRRSFAPVREVLKASEQL	soluble
MKSAIPSLMVQGTTSDAGKSVLVAGLCRVLARKGINVAPFKPQNMALNSAVTKDGGEIGRAQAVQAQACNIEPTVHMNPVLIKPNSDTGAQIILQGKALSNMDAASFHDYKKVAMNTVLDSFSKLTKEFDSIMIEGAGSPAEINLREGDIANMGFAEAADVPVIIVADIDRGGVFAHLYGTLALLSESEQTRVKGFVINRFRGDIRLLQSGLDWLEEKTGKPVLGVLPYLHGLNLEAEDAITAQQELNSEVKLNVVVPVLTRISNHTDFDVLRLNPDINLSYVGKGEKI	not soluble
MKSGERSAVADRAQQIMSAARELLDAEGPDALSMRRIAERVGIRAPSLYKHFADKAALVAGLQAQGLTLLAEVQEAAEAEIGADPPLLVLGYAYRRHALASPHLYRITHGWPLARTALPEGLEDRAALPLARAVHGDINIARSFWAFAHGMVVLELDGRFPPGADLDVAWRTGCEAFTQAIRNRPHGSTA	not soluble
MKSIRSRKSRRLRANRRKKRVHQPKLRQKPAKASQSRSRRMSRTDYISENVYIVLVYPKYQGNIGAVARSMWNSGLRHLIIIGNRPDDEAFARSMGGRFILENAEIYDDFASVISRFNVIAATSSTASSNEKHFRRLPLTPEKFWEEMSDQGGKIALVFGREDDGLRNEEIEKCNYFINIPGNPEYPVYNLSHAVAIILYVMFTRFNPPENIEIRAIEPDHEDLMLRNIIEVMRLTSYPEHKIRNTELLLRRLIARSRMSDREYFRMMGVIRRVKESLQRPLENESDHQRN	not soluble
MKSLQALFGGTFDPVHYGHLKPVETLANLIGLSRVIIMPNNVPPHRPQPEASSAQRKYMLELAIADKPLFTLDERELQRNAPSYTAQTLKAWREEQGPEAPLAFIIGQDSLLNFPTWHDYDTILDNTHLIVCRRPGYPLEMTQAQHQQWLEQHLTHTPDDLHQLPAGKIYLAETPWLNISATLIRERLEKGESCDDLLPENVLNYINQQGLYR	not soluble
MKSLRFQSVFDIIGPVMIGPSSSHTAGAVRIGKIVSSIFDDTPTEVEFQLFNSFAKTYRGHGTDLALVAGILGMDTDDPEIPNSLEIAHKRGIKIVWTIQKDSNAPHPNTTKITVKNAHKTISVTGISIGGGNIQVTELNGF	not soluble
MKSNKSKYKLVVDYVIDGINEGRLKKGAWIPSLNEFREMYGLSRDTVFSGIRELKSRGIIKSNPGVGYYIVSTRVPFKHNIFLLFNEFNEFKEDIYNSFMETVGNSATVDLYFHNYNRKVFETLVNNANHKYTTYIIMSGKFADIGPLLESLSGNVFLLDHYHSELKGKYSSVFQNFEKDTYEALVYGLSNLRKYKHIVMVQKDSKEPFERYDGLRAFCKEHGFTHECIGEIQGREIVKQEVFMVVNDRDLVNLLKQADRQQLVPGKDFGIISYNDTPLKEVLAGGITTLSTDFKLMGRTMASLINKKTIETIENPWNLNIRNSL	not soluble
MKSNPAIQAAIDLTAGAAGGTACVLTGQPFDTMKVKMQTFPDLYRGLTDCCLKTYSQVGFRGFYKGTSPALIANIAENSVLFMCYGFCQQVVRKVAGLDKQAKLSDLQNAAAGSFASAFAALVLCPTELVKCRLQTMYEMETSGKIAKSQNTVWSVIKSILRKDGPLGFYHGLSSTLLREVPGYFFFFGGYELSRSFFASGRSKDELGPVPLMLSGGVGGICLWLAVYPVDCIKSRIQVLSMSGKQAGFIRTFLNVVKNEGITALYSGLKPTMIRAFPANGALFLAYEYSRKLMMNQLEAY	soluble
MKSRFSARQQNSDNTADENKSTTTAVLLTNLGSPDEPTTSAVRRYLREFLSDTRVVEIPRLIWLLILHGIILRIRPAKSAKLYQTVWQDDGAPLISITAAQKEKMATKIKSQYGDNVIVDFAMRYGNPSIASVLQKFQQQGVDKLVVLPLYPQYAGPTTASTFDAVSKELQKWRYIPSIHFLNTYHNNPFYIQALAETVKEHVASHGKPERLVLSYHGMPELFHKWGDPYYDFCQE	not soluble
MKSRTRWLTSEELVTLFEAMRQAPGFSVENGLSIKLLLLLAVRKGELIGARWSEFDLDKAVWYLPAERTKTESAIDIPLPPIAVEWLRELQRLAGVSKWVLPARKMQDRMIPHIAESTLSVALAKIKHGLEPFTIHDLRRTARTHFEALGVAPHIAERCLNHKIKGIEGIYNRHDYFEERKAALEAWAGLLLQIERGEADKVVPIRRAVATKQLEHHHHHH	not soluble
MKTDVRWATFNIRYDNPQDSLNNWQYRKDRVCQFIKDHELDIVGMQEVLHNQFQDLRAGLPEYDGIGVGRDDGKTAGEYAPLFYRKDKYEVLDSNTFWLAENPDSVGMMGWDAVCVRIATWAKFKDKATGKIFMAVNTHFDHVGEEARRQSALLIIRKIKEIVGERPAVVTGDFNVTDASDAYETITTNEFVMKDAYKTAARVTGVDYTFHDFARIPAEDCEKIDFIFVTPQVLVKSCEIPAEVPEALLSDHNPQLADLELEHHHHHH	soluble
MKTEHKQVVVVGAGPSGSTVSALLKSRGIDVVVIEKATFPRFSIGESLLPACMEVVELAGMTEAVKQHGFQFKDGAAFRRNGVYTHFDFTDKFTAGPGTTFQVQRASFDKVLADSAAEQGVDIRYQHELVSLAFEGKKSRLEVVGPDKQAYQIEADFVLDASGFGRVLPRLLDLEEPSCLPPRKAIFTHIEDHISPQEPEYDRNKILISVHPENHDVWYWLIPFSNGTCSFGVVGEPEFFEQYPEDKLAALQQLANEEPGLASLLRNAKYPNPVGELGGYSANVKRLATEHYALLGNAGEFLDPVFSSGVTIAMKSAQFAADCVVRQLNGEVVDWQEEYSERLMVGVNTFRTYVEGWYNGTLQDVIFYQAPNPRIKQMISAILAGYAWDTENPYVKQSEQRLSTLAELVRGEGFLEHHHHHH	soluble
MKTIYLHHPITTDEWTDVKKVMALGFFDGVHLGHQAVIKQAKQIAEEKGLQTAVLTFDPHPSVVLSNIRKQVKYLTPLEDKAEKMANLGVDIMYVVRFTTQFSELSPRAFVDNYLVALNVKHVVAGFDYSYGKKGEGKMTELENYANGRFEVTIVDKQTAASDKISSTNIRRAITEGELEEANQLLGYP	not soluble
MKTLHSLSEQLGGLLANQQQILASAESCTGGGVAYWVTEVAGSSAWFDRSFVTYSNEAKQEMLGVRQATLQQFGAVSEQTVEEMALGALLHSKATLAAAISGIAGPGGGSAEKPVGTVCFGFASVQGWLKVETCHFTGDREQVRQQAIAHVLQSLIEHLAADQVQNVN	not soluble
MKTLNNTHIGQIYYIHKIIGKNQAKLRDLGMISDKKITLISTDGENAIVKIDETRLALSSEFLEQIFVKEERSSEDIIGLAHLQVGQTGVVRMIDATSDIRRRLMDMGITRGTSVHLQKLAPLGDPLELRLRGYSLSLRKTDAEKIKVVLERLEHHHHHH	soluble
MKTLTDTDHIHTLIAEGEHQQQDFKFEISDARKIAKTLSAFANTDGGRLLIGVKDNGRIAGVRSEEEKYMIEAAAQLYCIPEIDYTLQTYIVEGKQVLVATIEENPHKPVYAKDENGKPLAYLRIKDENILATPIHLRVWQQSGSPRGELIRYTEREQLLLDLLEQGTLLSLNRYCRQTGISRRAAEHLLAKFVRYDIVEPVFENHKFYFRMKNELEHHHHHH	soluble
MKTPSLILMTIILCNLSIPINAQILTSRQQKEDFDTLYSLLHQVHPDLFVYQTQKEFEKKHDSIYCLLNKERNLSDFYFIVSPFVASVKDGHTNFTIPATQDRIDYLNNGGLTLPLRLKIVENKILVDFPLISCSIQENDEIICMNNINSQTILSQLYLLLGAEKGNAIKENQLTSYLSTLLWYKYNWGEKYDFTIKRGKKIWKESLNGISQADAFPVLKARLGKSLPQFVYTLSPDKQTATLQIMNLYQLPQLKQFCDSVFSVINREHVPNLVIDVRNNKGGSSAGVDMLLSYLSHDAYILYIKTDLKISSYSKRYNEQKHPETYEEIKNLPDGSLFAIRDSFVEGNRDKADIYKGSVTVLVNESTYSGASTFASAIKKSHAGKVLGETGCPTVYFGNYMSFTLPNSRLEYYISLNKFYE	not soluble
MKTVVIGAGLGGLLSAARLSKAGHEVEVFERLPITGGRFTNLSYKGFQLSSGAFHMLPNGPGGPLACFLKEVEASVNIVRSEMTTVRVPLKKGNPDYVKGFKDISFNDFPSLLSYKDRMKIALLIVSTRKNRPSGSSLQAWIKSQVSDEWLIKFADSFCGWALSLKSDEVPVEEVFEIIENMYRFGGTGIPEGGCKGIIDALETVISANGGKIHTGQEVSKILIENGKAAGIIADDRIHDADLVISNLGHAATAVLCSEALSKEADAAYFKMVGTLQPSAGIKICLAADEPLVGHTGVLLTPYTRRINGVNEVTQADPELAPPGKHLTMCHQYVAPENVKNLESEIEMGLEDLKEIFPGKRYEVLLIQSYHDEWPVNRAASGTDPGNETPFSGLYVVGDGAKGKGGIEVEGVALGVMSVMEKVLGLEHHHHHH	soluble
MKTYDPATAVKTTGEFNGKKRFAVLLMGTDTGALNRTEKRGRTDTMILAVVNPAKKRYTLVSIPRDTMAQMVGSSSFTTEKINAAYEIGGARMSMDSVSALINVPIKYYAVVNMGGIMKMIRYVGGINIRPTLSFEYGGYVFKKGKLTHMGGAGALAYSRMRYDDPRGDYGRQERQRQVITTLIKKAVSVSSLTNLDSILTSVSSNVRTNLPFSALQQIALNYRGCANSSSSDYLHGYNAMIDDAAYQVQPTEELQRISDLVRTELGLEHHHHHH	soluble
MKVDKETIEYVANLARLRLSEKEKEKLALDLESIISYVDKLNELDTSKIIPTDHVIPIKNVFRDDEVRDSYPKDKMLMNAPEKEDGCFKVPKVVE	soluble
MKVIFNADDFGLTQGVNQGIVKAHLDGVVKSTTLMVGMPAEQHAVQLAKQLPDLKIGLHLRFTAGRPLTGERNLTDEHGVFTAYRDFWQRRDYQPEAIYHEAIAQVEHFLKLGLTLSHLDSHHHAHTHPQLAPIIYEVAKKYHVPLRDIGMAGEEAFGCRYHFTDFFYDQRLGIDPLMKHLLELKERFDLVEVMCHPAFVDPLLEKCSGYAKQREEELHILTSAQLIQLLVAHDIEITDYSALISAPLHSCV	not soluble
MKVLRHGLFKDRRVFDENYIPPELRVRRGEAEALARIYLNRLLSGAGLSDVNMIYGSIGRVGIGKTTLAKFTVKRVSEAAAKEGLTVKQAYVNAFNAPNLYTILSLIVRQTGYPIQVRGAPALDILKALVDNLYVENHYLLVILDEFQSMLSSPRIAAEDLYTLLRVHEEIPSRDGVNRIGFLLVASDVRALSYMREKIPQVESQIGFKLHLPAYKSRELYTILEQRAELGLRDTVWEPRHLELISDVYGEDKGGDGSARRAIVALKMACEMAEAMGRDSLSEDLVRKAVSENEAASIQTHELEALSIHELIILRLIAEATLGGMEWINAGLLRQRYEDASLTMYNVKPRGYTQYHIYLKHLTSLGLVDAKPSGRGMRGRTTLFRLAPHLPADRLIEVVDNIIQAKMASGYE	soluble
